# How the values were obtained:
# [1] = Phase 1b study GS-US-536-5816: safety (adverse events)
# Text: Participants were monitored clinically with plasma HIV-1 RNA every four weeks until the primary endpoint at Week 26. The primary endpoint was safety; secondary endpoints included virologic outcomes by FDA Snapshot analysis.
# [2] = Phase 1b study GS-US-536-5816: pharmacokinetics of TAB, ZAB and LEN; conditions: single dose; through Week 26
# [3] = in vivo, cited from earlier work
# [4] = Population PK modeling and simulation of GS-5423 and GS-2872, flat vs weight-based dosing every 6 months; design: species or system human
# Protocol: TAB and ZAB serum concentrations were measured using validated […]-electrochemiluminescence immunoassays. A two-compartment population PK model was developed to describe the PK data of GS-5423 and GS-2872 following IV and SC administration in HIV− and HIV+ participants. See, Joel S. Owen, Jill Fiedler-Kelly, “Introduction to Population Pharmacokinetic/Pharmacodynamic Analysis with Nonlinear Mixed Effects Models”, Wiley; 1st edition, 2014 (ISBN: 9780470582299). PopPK models of TAB and ZAB were developed using nonlinear mixed-effect modeling. Covariate analyses were performed to identify significant covariates, including body weight, effects of demographics, baseline characteristics, combination regimen, and disease status, on the PK parameters of GS-5423 and GS-2872. The population PK models were simulated to predict the PK profiles of GS-5423 and GS-2872 following IV administration of 30 or 10 mg/kg body weight normalized dosing or equivalent flat doses every 6 months. Model simulations were performed to predict the concentrations of TAB and ZAB following flat vs weight-based dosing.
# HIV = experiment: PK-PD viral dynamic model and simulations of viral rebound during ATI; design: species or system human; conditions: in vivo, PK-PD model
# Protocol: Population PK and PK-PD models were developed using a nonlinear mixed-effect modeling approach based on serum bNAb concentration and/or viral dynamic data from 6 efficacy studies in people with HIV, and 3 PK studies of 3BNC117/TAB (GS-5423) and/or 10-1074/ZAB (GS-2872) (Table 4).
# bNAb concentrations were measured by ELISA assays, except for study NCT03526848 (Gaebler, et al. Nature. 2022; 606:368-374). For this study, concentrations measured by TZM-bl assay (Sarzotti-Kelsoe, et al. J Immunol Methods. 2014; 409:131-146) were transformed to ELISA data using a log-linear correlation model calibrated based on data from study NCT02825797 (Mendoza, et al. Nature. 2018; 561:479-484; Bar-On Y, et al. Nat Med. 2018; 24:1701-1707) where PK was measured using both methods. The PK data of the bNAbs were modeled by 2-compartment linear PK models. Covariates (demographics, disease status, combination treatment) were tested using stepwise forward addition (α=0.01) and backward elimination (α=0.001) methods. The PK-PD model describes viral replication using a logistic growth function and viral elimination using first-order kinetics, with a nonlinear saturable (Emax) model to describe the relationship between bNAb concentrations and viral elimination rates. […]
molecule,measurement,setting,value
CC(C)(C#Cc1ccc(-c2ccc(Cl)c3c(NS(C)(=O)=O)nn(CC(F)(F)F)c23)c([C@H](Cc2cc(F)cc(F)c2)NC(=O)Cn2nc(C(F)(F)F)c3c2C(F)(F)[C@@H]2C[C@H]32)n1)S(C)(=O)=O [lenacapavir],injection site reactions related to subcutaneous administration,"[1]; 17/20 patients, LEN 927 mg SC",85%
same,participants with grade 3 AEs,[1]; injection site cellulitis and injection site erythema at site of LEN injection,Two participants
same,therapeutic concentrations,[2],maintained through Week 26
zinlirvimab: anti-HIV gp120 V3 glycan-binding bNAb; 10-1074 with M428L and N434S (LS) Fc substitutions; heavy and light chains SEQ ID NOs: 433 and 434,non-solicited AEs within 4 weeks of IP administration,[3]; ip,33.7%
same,Grade 3 AE: decrease in hemoglobin,[3],1%
same,Grade 3 AE: elevated blood pressure,[3],4%
same,Grade 3 AE: increased left-sided weakness,[3],1%
same,Grade 3 AE: nephrolithiasis,[3],1%
same,Grade 3 AE: proteinuria,[3],1%
same,most common AE: localized musculoskeletal pain,[3],8%
same,most common AE: symptoms of gastroenteritis,[3],8%
same,most common AE: upper respiratory infections,[3],25%
same,non-solicited AEs of Grade 3 severity,[3],9.3%
same,non-solicited AEs of grade 2 severity,[3],11.6%
same,non-solicited AEs reported (number),[3],86
same,solicited AE: erythema/skin discoloration at the administration site,[3],8%
same,solicited AE: feverishness,[3],4%
same,solicited AE: headache,[3],4%
same,solicited AE: induration at the administration site,[3],2%
same,solicited AE: malaise/fatigue,[3],3%
same,solicited AE: myalgia,[3],1%
same,solicited AE: pain at the administration site,[3],4%
same,solicited AEs reported (number),[3],20
same,clearance in viremic PWH compared with those suppressed at baseline,[4]; PopPK covariate analysis,significant increase in the clearance
same,effect of increased body weight on PK parameters,[4]; PopPK covariate analysis in PWH,increased volume of distribution and clearance
same,estimated mean serum concentration corresponding to 50% maximum drug effect (EC50),HIV,32.2 µg/mL
same,tolerability,"[1]; up to 30 mg/kg alone or in combination, GS-US-536-5816 and previous studies in HIV+ participants",well-tolerated
same,therapeutic concentrations,[2],maintained through Week 26

# Source: patent US20240083984A1, “DOSING AND SCHEDULING REGIMEN FOR BROADLY NEUTRALIZING ANTIBODIES” (priority 2022, published 2024)
